# According to US5405758:
# Target: mite allergen fused protein expressed by pAEX201 in E. coli pop2136 (purified recombinant mite allergen fused protein) (Dermatophagoides farinae)
# Conditions: scale: times lower concentration at the inflexion point than the crude mite body antigen
substance,measurement,value
"blood cells from a mite asthma patient, washed with Hanks' solution (cells without a defined receptor)","histamine release, percent ratio of the released histamine (HPLC)",> 200
